Where no end group is shown, it is not given here. [ ]: non-standard residue; d: D form. S5 = C=CCCC[C@](C)(N)C(=O)O
Molecular target: T1, His-tagged Catalytic Domain of JAK2 (residues 826–1132) (UniProt O60674 826-1132, RED-tris-NTA dye bound to the His tag (His-Tag labeling Kit RED-tris-NTA))
T1 construct: JAK2 (Janus Kinase 2), catalytic domain, residues 826-1132; also called JAK2 catalytic domain; Janus Kinase 2; source: bought: Carna Biosciences
Experiment: MST; Monolith NT 115; His-tagged JAK2 catalytic domain labelled with RED-tris-NTA kept constant, peptides in increasing concentrations; standard capillaries, 25 °C, 50 mM Tris-HCl, 150 mM NaCl, 0.05% Brij35, 1 mM DTT, 10% glycerol, 15% TFE, pH 7.5; fit by Langmuir binding isotherm
Settings: both partners purified

T1 sequence (O60674 826-1132): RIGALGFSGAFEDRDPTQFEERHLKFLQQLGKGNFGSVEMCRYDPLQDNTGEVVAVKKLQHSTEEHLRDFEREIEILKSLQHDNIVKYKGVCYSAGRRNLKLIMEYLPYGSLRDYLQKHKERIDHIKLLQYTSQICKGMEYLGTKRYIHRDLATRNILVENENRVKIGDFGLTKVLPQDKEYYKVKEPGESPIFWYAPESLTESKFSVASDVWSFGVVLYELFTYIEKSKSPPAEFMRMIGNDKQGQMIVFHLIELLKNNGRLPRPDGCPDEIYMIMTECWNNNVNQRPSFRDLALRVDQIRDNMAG

Kd: 8 µM
Binder: FSSKSEYQL[S5]FYWS[S5]VTG-OH (not fully specified; bridges not given here) [linear version of KIRCONG i/i+5 peptide]

Reference: PMC9031227, “Structure-Activity Relationship Investigations of Novel Constrained Chimeric Peptidomimetics of SOCS3 Protein Targeting JAK2” (Pharmaceuticals, 2022)
